The target of data set [1] is T1, 6xHis-PA3225 (Pseudomonas aeruginosa UCBPP-PA14) (UniProt A0A0H2ZDR5).
T1 sequence: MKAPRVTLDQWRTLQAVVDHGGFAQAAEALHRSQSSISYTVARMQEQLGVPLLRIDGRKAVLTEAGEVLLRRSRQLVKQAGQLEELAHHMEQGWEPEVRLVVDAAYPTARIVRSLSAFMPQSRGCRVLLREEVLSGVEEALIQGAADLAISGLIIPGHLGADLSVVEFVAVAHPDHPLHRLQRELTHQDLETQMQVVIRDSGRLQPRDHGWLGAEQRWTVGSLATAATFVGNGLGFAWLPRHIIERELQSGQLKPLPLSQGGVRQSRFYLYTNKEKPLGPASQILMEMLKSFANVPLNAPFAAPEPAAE
Nature of the data set: competition.

Data set [2] deals with T1, 6xHis-PA3225 (Pseudomonas aeruginosa UCBPP-PA14). Nature of the data set: EMSA. Background: A gel shift assay detects complexes by their altered migration in electrophoresis.

For “ATGGCTGGCGTTCGTTGCATAGCGTTGTCCTCATGAGCGAAAGCGGCCGATGCAGCGTGAAGGCGCTGCACCGGCTCGAAGAAGGCAGGCAAAATACTTACATTCATAGGTGTTTGTAAACGTCCGAAAGC (double strand) [PmexAB-oprM probe 4 unlabeled]”, the binding result in data set [1] was “no binding”. Still for that read-out and setting: under “ATGTGGTTGATCCAGTCAACTATTTTGCTTATTTTAGTTGACCTTATCAACCTTGTTTCAGGTTCTGAATATGGGCCATGGCGCCGGGTGGATAACCGGCCATCGAGCTAAAACGTTTCAGGTGTTTTCACGCGAGGCTTTCGGACGTTTACA (double strand) [PmexAB-oprM probe 3 unlabeled]” stands “binds”. Turning to “ATGGCTGGCGTTCGTTGCATAGCGTTGTCCTCATGAGCGAAAGCGGCCGATGCAGCGTGAAGGCGCTGCACCGGCTCGAAGAAGGCAGGCAAAATACTTACATTCATAGGTGTTTGTAAACGTCCGAAAGC (double strand) [Cy5-PmexAB-oprM probe 4]”, the binding result in data set [2] is “no binding”.

For the sequence “TAGTTGACTGGATCAACCACATTTACATTAGGTTTACTCGGCCAAACCAATGAACTACCCCGTGAATCCCGACCTGATGCCCGCGCTGATGGCGGTCTTCCAGCATGTACGGACGCGCATCCAGAGCGAGCTCGATT (double strand) [Cy5-PmexAB-oprM probe 2]”, the binding entry in data set [2] is given as “no binding”. For “TAGTTGACTGGATCAACCACATTTACATTAGGTTTACTCGGCCAAACCAATGAACTACCCCGTGAATCCCGACCTGATGCCCGCGCTGATGGCGGTCTTCCAGCATGTACGGACGCGCATCCAGAGCGAGCTCGATT (double strand) [PmexAB-oprM probe 2 unlabeled]”, the binding result in data set [1] is recorded as “no binding”. Take “ATGTGGTTGATCCAGTCAACTATTTTGCTTATTTTAGTTGACCTTATCAACCTTGTTTCAGGTTCTGAATATGGGCCATGGCGCCGGGTGGATAACCGGCCATCGAGCTAAAACGTTTCAGGTGTTTTCACGCGAGGCTTTCGGACGTTTACA (double strand) [Cy5-PmexAB-oprM probe 3]”: the binding entry in data set [2] is listed as “binds”.

Source of the values: publication PMC5527654.
